Results reported in publication PMC8556265.

Biological target: Lsi1_(cryst) (rice Low silicon rice 1, ΔN44/ΔC24/K50R/C66A/T93V/C139A/K232R/T253V/K264R) (rice (Oryza sativa cv. Nipponbare))
Experiment: crystal structure; X-ray, 1.8 Å; sitting drop vapour diffusion at 7 °C, 39-50% PEG 400, 100 mM Gly-NaOH pH 9.5, 1% OG, 0.1% CHS; space group P2_(1), two tetramers built

- stoichiometry N: 4
Substance: Lsi1_(cryst) (rice Low silicon rice 1, ΔN44/ΔC24/K50R/C66A/T93V/C139A/K232R/T253V/K264R) (domain or fragment)
